{"source": "patent US20260265359A1", "key": {"[1]": {"target": "recombinant human VEGF-A165 (human) (UniProt P15692)", "sequence (P15692 other isoform, or with tags, fused parts or gaps limits assumed)": "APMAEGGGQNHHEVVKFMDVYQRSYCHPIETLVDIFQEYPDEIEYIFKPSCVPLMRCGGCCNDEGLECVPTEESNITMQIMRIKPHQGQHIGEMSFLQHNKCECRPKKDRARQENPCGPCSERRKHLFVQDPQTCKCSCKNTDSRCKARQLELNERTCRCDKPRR"}, "[2]": {"target": "recombinant human VEGF-A165 (human) (UniProt P15692)", "remark": "listed apart in the source"}, "[3]": {"target": "recombinant human VEGF-A165 (human) (UniProt P15692)", "remark": "listed apart in the source"}, "[4]": {"target": "T1, recombinant human PIGF (human) (UniProt P49763)", "T1 sequence (looked up)": "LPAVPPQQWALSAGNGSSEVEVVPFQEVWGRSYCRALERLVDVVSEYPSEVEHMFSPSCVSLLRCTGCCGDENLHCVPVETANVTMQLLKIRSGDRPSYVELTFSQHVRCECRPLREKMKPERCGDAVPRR", "assay": "ELISA on plate-coated recombinant human PIGF; anti-human IgG1-Fc-HRP, OD450"}, "[5]": {"target": "T2, recombinant human VEGF-B167 (human) (UniProt P49765)", "T2 sequence (looked up)": "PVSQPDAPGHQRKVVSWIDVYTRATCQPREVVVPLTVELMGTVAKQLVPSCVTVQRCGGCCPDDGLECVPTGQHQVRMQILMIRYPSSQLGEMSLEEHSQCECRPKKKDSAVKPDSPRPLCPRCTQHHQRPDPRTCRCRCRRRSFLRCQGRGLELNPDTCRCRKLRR", "assay": "ELISA on plate-coated recombinant human VEGF-B167; anti-human IgG1-Fc-HRP, OD450"}, "[6]": {"target": "recombinant human VEGF-A165 (human) (UniProt P15692)", "assay": "ELISA on plate-coated recombinant human VEGF-A165; anti-human IgG1-Fc-HRP, OD450"}, "[7]": {"target": "T1, recombinant human PIGF (human)", "assay": "SPR Biacore, 25 C; test antibody captured by anti-human IgG (Fc) on CM5 chip, target protein as analyte; 1:1 model"}, "[8]": {"target": "recombinant human VEGF-A165 (human) (UniProt P15692)", "assay": "SPR Biacore, 25 C; test antibody captured by anti-human IgG (Fc) on CM5 chip, target protein as analyte; 1:1 model"}, "[9]": {"target": "T2, recombinant human VEGF-B167 (human)", "assay": "SPR Biacore, 25 C; test antibody captured by anti-human IgG (Fc) on CM5 chip, target protein as analyte; 1:1 model"}, "[10]": {"target": "T1, recombinant human PIGF (human)", "assay": "SPR Biacore, 25 C; test antibody captured by anti-human IgG (Fc) on CM5 chip, target protein as analyte; 1:1 model", "remark": "listed apart in the source"}, "[11]": {"target": "recombinant human VEGF-A165 (human) (UniProt P15692)", "assay": "SPR Biacore, 25 C; test antibody captured by anti-human IgG (Fc) on CM5 chip, target protein as analyte; 1:1 model", "remark": "listed apart in the source"}, "[12]": {"target": "T2, recombinant human VEGF-B167 (human)", "assay": "SPR Biacore, 25 C; test antibody captured by anti-human IgG (Fc) on CM5 chip, target protein as analyte; 1:1 model", "remark": "listed apart in the source"}, "[13]": {"target": "T1, recombinant human PIGF (human)", "assay": "ELISA on plate-coated recombinant human PIGF; anti-human IgG1-Fc-HRP, OD450", "remark": "listed apart in the source"}, "[14]": {"target": "recombinant human Ang-2 (human) (UniProt O15123)", "sequence (O15123 19-496 limits assumed)": "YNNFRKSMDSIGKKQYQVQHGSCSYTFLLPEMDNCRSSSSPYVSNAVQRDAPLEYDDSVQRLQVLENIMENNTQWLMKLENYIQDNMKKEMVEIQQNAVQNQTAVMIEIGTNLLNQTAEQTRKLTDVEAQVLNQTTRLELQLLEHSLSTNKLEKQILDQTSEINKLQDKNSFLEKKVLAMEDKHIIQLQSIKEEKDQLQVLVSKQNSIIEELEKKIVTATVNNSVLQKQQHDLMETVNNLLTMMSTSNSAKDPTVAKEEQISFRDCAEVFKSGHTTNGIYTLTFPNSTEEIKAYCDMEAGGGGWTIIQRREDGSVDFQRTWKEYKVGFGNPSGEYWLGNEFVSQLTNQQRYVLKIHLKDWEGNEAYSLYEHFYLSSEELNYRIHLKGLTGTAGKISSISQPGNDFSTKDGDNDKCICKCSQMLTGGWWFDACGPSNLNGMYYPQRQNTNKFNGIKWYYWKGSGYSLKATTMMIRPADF", "assay": "ELISA on plate-coated recombinant human Ang-2; anti-human IgG1-Fc-HRP, OD450"}, "[15]": {"target": "human IL-6R overexpressed on engineered CHO-S cells (human) (UniProt P08887)", "sequence (P08887 20-468, change not shown)": "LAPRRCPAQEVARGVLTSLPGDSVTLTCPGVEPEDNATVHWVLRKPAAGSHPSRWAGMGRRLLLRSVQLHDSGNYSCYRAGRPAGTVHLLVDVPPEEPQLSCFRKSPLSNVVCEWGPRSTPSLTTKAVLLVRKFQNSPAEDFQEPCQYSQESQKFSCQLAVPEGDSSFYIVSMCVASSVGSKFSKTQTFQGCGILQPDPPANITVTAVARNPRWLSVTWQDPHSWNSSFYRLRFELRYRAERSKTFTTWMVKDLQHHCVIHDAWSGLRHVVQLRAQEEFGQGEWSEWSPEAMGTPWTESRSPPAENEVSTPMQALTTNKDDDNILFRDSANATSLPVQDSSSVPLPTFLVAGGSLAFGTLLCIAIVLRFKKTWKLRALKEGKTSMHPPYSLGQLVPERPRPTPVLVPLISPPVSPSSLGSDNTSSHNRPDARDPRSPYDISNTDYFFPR", "assay": "FACS competition: antibody with biotinylated human IL-6 and CHO-S cells overexpressing human IL-6R; blocked: IL-6 binding to IL-6R"}}, "note": "Like-named read-outs stand apart in the source and are kept apart here."}
{"substance": "Aflibercept (Fc fusion)", "values": [{"measurement": "IC50, inhibition of VEGF-A165-stimulated VEGFR-2 NF-AT luciferase reporter (HEK-293), luminescence", "setting": "[1]", "result": 0.606, "unit": "nM"}, {"measurement": "IC50, inhibition of VEGF-A165-stimulated VEGFR-2 NF-AT luciferase reporter (HEK-293), luminescence", "setting": "[2]", "result": 0.595, "unit": "nM"}, {"measurement": "IC50, inhibition of VEGF-A165-stimulated VEGFR-2 NF-AT luciferase reporter (HEK-293), luminescence", "setting": "[3]", "result": 0.326, "unit": "nM"}, {"measurement": "EC50", "setting": "[4]", "result": 0.012, "unit": "nM"}, {"measurement": "EC50", "setting": "[5]", "result": 0.076, "unit": "nM"}, {"measurement": "EC50", "setting": "[6]", "result": 0.008, "unit": "nM"}, {"measurement": "Kd", "setting": "[7]", "result": 0.148, "unit": "nM"}, {"measurement": "Kd", "setting": "[8]", "result": 0.00257, "unit": "nM"}, {"measurement": "Kd", "setting": "[9]", "result": 1.85, "unit": "nM"}, {"measurement": "Kd", "setting": "[10]", "result": 0.106, "unit": "nM"}, {"measurement": "Kd", "setting": "[11]", "result": 0.00344, "unit": "nM"}, {"measurement": "Kd", "setting": "[12]", "result": 1.37, "unit": "nM"}]}
{"substance": "Conbercept (Fc fusion)", "values": [{"measurement": "EC50", "setting": "[13]", "result": 0.103, "unit": "nM"}, {"measurement": "EC50", "setting": "[4]", "result": 0.089, "unit": "nM"}, {"measurement": "EC50", "setting": "[5]", "result": 0.009, "unit": "nM"}, {"measurement": "EC50", "setting": "[6]", "result": 0.078, "unit": "nM"}]}
{"substance": "Tie-2-Fc (Fc fusion)", "values": [{"measurement": "EC50", "setting": "[14]", "result": 8.32, "unit": "nM"}]}
{"substance": "Vobarilizumab-Fc (Fc fusion)", "values": [{"measurement": "IC50", "setting": "[15]", "result": 0.524, "unit": "nM"}]}
